Data from paper PMC5763555.

B1: TNF-ARE (ssRNA)
RNA: GUGAUUAUUUAUUAUUUAUUUAUUAUUUAUUUAUUAG
B2: SCR+ (glp-1 3'UTR fragment) (ssRNA)
RNA: UUUUUCUUAUUCUAGACUAAUAUUGUAAGCU

Tests used:
Assay in all cases: EMSA
MEX-5 TZF domain = target: T1, MEX-5 TZF domain (Caenorhabditis elegans, UniProt Q9XUB2 236-350)
T1 sequence: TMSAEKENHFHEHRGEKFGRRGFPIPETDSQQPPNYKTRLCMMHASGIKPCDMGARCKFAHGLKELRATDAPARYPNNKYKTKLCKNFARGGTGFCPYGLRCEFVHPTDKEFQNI

POS-1 TZF domain = POS-1 TZF domain (Caenorhabditis elegans, UniProt G5EF15 80-180)
POS-1(ZFmut) TZF domain = POS-1(ZFmut) TZF domain (Caenorhabditis elegans, UniProt G5EF15 80-180, F121N;F164N)
POS-1(ZFmut) TZF domain, sequence (G5EF15 80-180 F121N/F164N): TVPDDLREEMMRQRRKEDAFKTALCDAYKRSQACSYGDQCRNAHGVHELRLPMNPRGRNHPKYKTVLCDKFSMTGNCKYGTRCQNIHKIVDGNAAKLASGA

POS-1 TZF domain, sequence (G5EF15 80-180): as the sequence (G5EF15 80-180 F121N/F164N) above, with N42F, N85F counted along it

Row | Binder | Kd (MEX-5 TZF domain) | Kd (POS-1 TZF domain) | Kd (POS-1(ZFmut) TZF domain)
1 | B1 | 11 ± 2 nM |  | 
2 | B2 |  | 26.9 ± 1.8 nM | > 300 nM
